Measured values published in article doi:10.1101/2022.10.08.511438.

Assays:
[1] = biological target: dihydrolipoyl succinyltransferase (E2o), core of the oxoglutarate dehydrogenase complex, Chaetomium thermophilum (C. thermophilum (endogenous in mycelium lysate)); test: label-free MS quantitation
[2] = biological target: dihydrolipoyl succinyltransferase (E2o), core of the oxoglutarate dehydrogenase complex, Chaetomium thermophilum (C. thermophilum (endogenous in mycelium lysate)); test: cryo-EM structure

## dihydrolipoyl dehydrogenase (E3), Chaetomium thermophilum (enzyme)
[1]
  stoichiometry N (E3 dimers relative to 24 E2o subunits): 4

## dihydrolipoyl succinyltransferase (E2o), core of the oxoglutarate dehydrogenase complex, Chaetomium thermophilum (enzyme)
[2]
  stoichiometry N: 24 subunits

## oxoglutarate dehydrogenase (E1o) of the oxoglutarate dehydrogenase complex (OGDHc), Chaetomium thermophilum (enzyme)
[1]
  stoichiometry N (E1o dimers around the 24-mer E2o core): 9
  stoichiometry N (E1o dimers relative to 24 E2o subunits): < 10
